Legend:
[1] = target: hemagglutinin (HA) of influenza A virus H3N2, strain A/Victoria/3/75 (influenza A virus H3N2, strain …, UniProt P03435 17-567); test: cell-based or functional assay
[2] = target: hemagglutinin (HA) of influenza A virus H1N1, strain A/Malaya/302/54 (influenza A virus H1N1, strain …); test: cell-based or functional assay
[3] = target: hemagglutinin (HA) of influenza A virus H3N2, strain A/PC/1/73 (influenza A virus H3N2, strain A/PC/1/73, UniProt Q1PUD9 17-566); test: cell-based or functional assay
[4] = target: hemagglutinin (HA) of influenza A virus H1N1, strain A/PR/8/34 (influenza A virus H1N1, strain A/PR/8/34, UniProt P03452 18-565); test: cell-based or functional assay
[5] = target: HA2 subunit of hemagglutinin (individual subunit, Western blot) (influenza A virus H1N1, strain A/PR/8/34, UniProt P03452 344-565); test: Western blot
HA2 subunit of hemagglutinin (individual subunit, Western blot), sequence (P03452 344-565 limits assumed): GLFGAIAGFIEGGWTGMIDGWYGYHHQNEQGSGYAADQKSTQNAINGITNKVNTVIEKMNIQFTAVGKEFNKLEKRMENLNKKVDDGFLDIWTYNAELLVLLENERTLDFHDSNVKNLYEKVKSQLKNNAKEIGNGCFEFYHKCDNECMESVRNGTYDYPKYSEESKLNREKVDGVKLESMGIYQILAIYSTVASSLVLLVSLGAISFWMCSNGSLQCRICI

hemagglutinin (HA) of influenza A virus H3N2, strain A/Victoria/3/75, sequence (P03435 17-567 limits assumed): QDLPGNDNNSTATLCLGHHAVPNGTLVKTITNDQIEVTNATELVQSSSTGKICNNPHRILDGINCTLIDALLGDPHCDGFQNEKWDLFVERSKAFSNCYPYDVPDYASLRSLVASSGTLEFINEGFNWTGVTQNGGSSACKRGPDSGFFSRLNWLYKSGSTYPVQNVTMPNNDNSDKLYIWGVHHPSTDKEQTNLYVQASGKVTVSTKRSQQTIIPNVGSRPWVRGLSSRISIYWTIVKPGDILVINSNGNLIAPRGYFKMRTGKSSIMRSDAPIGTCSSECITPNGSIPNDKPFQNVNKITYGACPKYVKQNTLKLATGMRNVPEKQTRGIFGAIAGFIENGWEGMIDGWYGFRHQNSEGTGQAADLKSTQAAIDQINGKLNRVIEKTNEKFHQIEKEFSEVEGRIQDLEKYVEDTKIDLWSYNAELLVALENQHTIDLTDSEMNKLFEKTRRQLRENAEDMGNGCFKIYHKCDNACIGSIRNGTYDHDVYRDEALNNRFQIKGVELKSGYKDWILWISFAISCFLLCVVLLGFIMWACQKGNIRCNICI
hemagglutinin (HA) of influenza A virus H1N1, strain A/PR/8/34, sequence (P03452 18-565 limits assumed): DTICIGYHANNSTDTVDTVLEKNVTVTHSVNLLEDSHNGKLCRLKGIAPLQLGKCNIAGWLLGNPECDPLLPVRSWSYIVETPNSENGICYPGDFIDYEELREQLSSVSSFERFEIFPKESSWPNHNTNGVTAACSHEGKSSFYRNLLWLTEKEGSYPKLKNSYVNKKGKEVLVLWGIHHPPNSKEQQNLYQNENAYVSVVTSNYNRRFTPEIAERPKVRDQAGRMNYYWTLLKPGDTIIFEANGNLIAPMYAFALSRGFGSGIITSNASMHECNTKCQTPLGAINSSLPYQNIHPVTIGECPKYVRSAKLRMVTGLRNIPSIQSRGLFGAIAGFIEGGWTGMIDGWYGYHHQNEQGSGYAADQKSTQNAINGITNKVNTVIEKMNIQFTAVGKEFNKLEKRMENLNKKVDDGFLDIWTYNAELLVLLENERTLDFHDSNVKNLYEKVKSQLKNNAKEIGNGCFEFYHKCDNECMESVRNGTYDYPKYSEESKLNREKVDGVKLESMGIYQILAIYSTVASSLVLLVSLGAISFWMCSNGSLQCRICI
hemagglutinin (HA) of influenza A virus H3N2, strain A/PC/1/73, sequence (Q1PUD9 17-566): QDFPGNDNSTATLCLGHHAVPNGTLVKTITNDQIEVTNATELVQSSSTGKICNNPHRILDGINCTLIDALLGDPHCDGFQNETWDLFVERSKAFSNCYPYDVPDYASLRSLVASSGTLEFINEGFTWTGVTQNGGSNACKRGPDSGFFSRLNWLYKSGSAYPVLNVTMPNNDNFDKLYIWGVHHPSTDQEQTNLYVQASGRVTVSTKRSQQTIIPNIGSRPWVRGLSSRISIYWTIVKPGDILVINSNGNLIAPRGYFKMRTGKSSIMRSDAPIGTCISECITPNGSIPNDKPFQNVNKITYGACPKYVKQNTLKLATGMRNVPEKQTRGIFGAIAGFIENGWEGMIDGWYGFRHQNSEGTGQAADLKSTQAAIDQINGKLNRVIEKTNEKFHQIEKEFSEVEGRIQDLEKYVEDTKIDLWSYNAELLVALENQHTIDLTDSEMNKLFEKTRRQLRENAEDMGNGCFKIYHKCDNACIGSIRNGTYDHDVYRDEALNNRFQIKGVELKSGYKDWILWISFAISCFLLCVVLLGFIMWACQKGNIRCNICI

B1: Fab28 (monoclonal antibody produced by clone INF28, human Fab fragment) (Fab, V domains shown)
VH: LEESGGGVVQPGRSLRLSCAASGFPFSSYGMHWVRQAPGKGLEWVAGVSYDGSYKYYADSVKGRFTISRDSSKSTLYLQMNSLRPEDTAVYYCARPSAIFGIYIILNGLDVWGQGTTVTVSS
VL: ELTQSPSSVSASVGDRVTITCRATQGISSWLAWYQQKPGKPPKLLIFGASSLQSGVPSRFSGSGSGTDFTLTISSLQPEDFATYFCQQAHSFPLTFGGGTKVEIK
IC50, neutralization by plaque reduction assay, H3N2 A/Victoria/3/75 [1]: ~20 µg/mL
IC50, neutralization by plaque reduction assay, H1N1 A/Malaya/302/54 [2]: < 2.5 µg/mL
IC50, neutralization by plaque reduction assay, H3N2 A/Port Chalmers/1/73 [3]: ~20 µg/mL
IC50, neutralization by plaque reduction assay, H1N1 A/PR/8/34 [4]: < 2.5 µg/mL
binding result [5]: no binding

Source: patent publication US20160060325A1 (POMONA RICERCA S R L, published 2016)
